{"source": "paper PMC10048814", "assay_in_all_cases": "fluorescence polarization", "conditions_in_all_cases": "50 mM HEPES-KOH pH 7.5, 10 mM potassium acetate, 2 mM beta-mercaptoethanol, 0.1 mg/mL BSA, 5 mM MgCl2, 2 nM DNA, temperature not stated", "key": {"[1]": {"molecular_target": "T1, pol eta core C34W C34W (Homo sapiens) (UniProt Q9Y253)", "T1 sequence": "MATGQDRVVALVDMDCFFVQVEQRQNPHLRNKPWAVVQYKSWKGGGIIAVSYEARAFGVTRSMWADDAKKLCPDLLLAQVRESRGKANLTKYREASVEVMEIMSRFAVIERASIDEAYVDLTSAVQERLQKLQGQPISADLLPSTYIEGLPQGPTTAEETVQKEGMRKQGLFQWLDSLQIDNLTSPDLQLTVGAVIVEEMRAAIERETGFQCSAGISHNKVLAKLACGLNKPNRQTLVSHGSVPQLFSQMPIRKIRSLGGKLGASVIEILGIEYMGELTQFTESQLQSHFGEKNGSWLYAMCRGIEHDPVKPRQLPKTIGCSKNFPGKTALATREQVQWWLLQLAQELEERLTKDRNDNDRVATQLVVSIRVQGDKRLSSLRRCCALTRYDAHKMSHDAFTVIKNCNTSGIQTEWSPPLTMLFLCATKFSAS"}, "[2]": {"molecular_target": "T2, pol eta core R167Q R167Q (Homo sapiens) (UniProt Q9Y253)", "T2 sequence": "T1 sequence with W34C, R167Q"}, "[3]": {"molecular_target": "T3, pol eta core S296F S296F (Homo sapiens) (UniProt Q9Y253)", "T3 sequence": "T1 sequence with W34C, S296F"}, "[4]": {"molecular_target": "T4, pol eta core I147N I147N (Homo sapiens) (UniProt Q9Y253)", "T4 sequence": "T1 sequence with W34C, I147N"}, "[5]": {"molecular_target": "T5, pol eta core I272T I272T (Homo sapiens) (UniProt Q9Y253)", "T5 sequence": "T1 sequence with W34C, I272T"}, "[6]": {"molecular_target": "T6, pol eta core R334G R334G (Homo sapiens) (UniProt Q9Y253)", "T6 sequence": "T1 sequence with W34C, R334G"}, "[7]": {"molecular_target": "T7, pol eta core T329I T329I (Homo sapiens) (UniProt Q9Y253)", "T7 sequence": "T1 sequence with W34C, T329I"}, "[8]": {"molecular_target": "T8, pol eta core G209V G209V (Homo sapiens) (UniProt Q9Y253)", "T8 sequence": "T1 sequence with W34C, G209V"}, "[9]": {"molecular_target": "T9, DNA polymerase eta core, wild-type (Homo sapiens) (UniProt Q9Y253)", "T9 sequence": "T1 sequence with W34C"}, "[10]": {"conditions": "cis-syn cyclobutane thymine dimer at T7-T8 of the 25-mer template"}}, "note": "Positions count from the first letter of the chain named.", "data": [{"sequence": "CACCATCCACTAC / ATGTAGTTGTAGTGGATGGTGGTAC [13-FAM-mer/25-CTD-mer]", "values": [{"measurement": "Kd", "setting": "[1]; [10]", "value": 5.9, "unit": "nM"}, {"measurement": "Kd", "setting": "[2]; [10]", "value": 18, "unit": "nM"}, {"measurement": "Kd", "setting": "[3]; [10]", "value": 14, "unit": "nM"}, {"measurement": "Kd", "setting": "[4]; [10]", "value": 7, "unit": "nM"}, {"measurement": "Kd", "setting": "[5]; [10]", "value": 11, "unit": "nM"}, {"measurement": "Kd", "setting": "[6]; [10]", "value": 12, "unit": "nM"}, {"measurement": "Kd", "setting": "[7]; [10]", "value": 5.9, "unit": "nM"}, {"measurement": "Kd", "setting": "[8]; [10]", "value": 11, "unit": "nM"}, {"measurement": "Kd", "setting": "[9]; [10]", "value": 11, "unit": "nM"}]}, {"sequence": "CACCATCCACTAC / ATGTAGTTGTAGTGGATGGTGGTAC [13-FAM-mer/25-TT-mer]", "values": [{"measurement": "Kd", "setting": "[1]", "value": 6.1, "unit": "nM"}, {"measurement": "Kd", "setting": "[2]", "value": 9.5, "unit": "nM"}, {"measurement": "Kd", "setting": "[3]", "value": 10, "unit": "nM"}, {"measurement": "Kd", "setting": "[4]", "value": 6.7, "unit": "nM"}, {"measurement": "Kd", "setting": "[5]", "value": 8.5, "unit": "nM"}, {"measurement": "Kd", "setting": "[6]", "value": 11, "unit": "nM"}, {"measurement": "Kd", "setting": "[7]", "value": 5, "unit": "nM"}, {"measurement": "Kd", "setting": "[8]", "value": 8.4, "unit": "nM"}, {"measurement": "Kd", "setting": "[9]", "value": 10, "unit": "nM"}]}]}
